The values below come from article PMC5605669.

This assay concerns the target APOBEC3G, wild type (human), Q9HC16. As to the kind of experiment: optical tweezers (single-molecule ssDNA extension); self-association of A3G bound to force-melted lambda-DNA (ssDNA) held at 80 pN; 10 to 200 nM A3G flowed in; 10 mM HEPES, 50 mM Na+, pH 7.5, 21 °C; two-exponential fit of incubation curves, k2 = rate of oligomer formation at saturating binding. As to conditions: remark: other sources report otherwise.

B1: APOBEC3G, wild type, Q9HC16 1-384 (enzyme)
chain: MKPHFRNTVERMYRDTFSYNFYNRPILSRRNTVWLCYEVKTKGPSRPPLDAKIFRGQVYSELKYHPEMRFFHWFSKWRKLHRDQEYEVTWYISWSPCTKCTRDMATFLAEDPKVTLTIFVARLYYFWDPDYQEALRSLCQKRDGPRATMKIMNYDEFQHCWSKFVYSQRELFEPWNNLPKYYILLHIMLGEILRHSMDPPTFTFNFNNEPWVRGRHETYLCYEVERMHNDTWVLLNQRRGFLCNQAPHKHGFLEGRHAELCFLDVIPFWKLDLDQDYRVTCFTSWSPCFSCAQEMAKFISKNKHVSLCIFTARIYDDQGRCQEGLRTLAEAGAKISIMTYSEFKHCWDTFVDHQGCPFQPWDGLDEHSQDLSGRLRAILQNQEN
For B1, the k2 (rate of oligomer formation on ssDNA) was found to be 0.007 s⁻¹.
